# Assay results: the RNAGym collection of RNA variant scans (doi:10.7554/elife.80360)
# B1: HDV Ribozyme (parent)
# chain: GGCCGGCAUGGUCCCAGCCUCCUCGCUGGCGCCGGCUGGGCAACAUUCCGAGGGGACCGUCCCCUCGGUAAUGGCGAAUGGGACCCA
# Variants of: B1
# Assay: self-cleavage, relative activity (ratio to wild type); higher = more cleavage; co-transcriptional
row,Variant,self-cleavage
1,C18U G39U,0.0997
2,G1A C24U,0.111
3,C26A U46A,0.77
4,G29A G39U,0.0432
5,G10C C33U,0.696
6,G39U A78U,0.157
7,C36G C86G,0.119
8,C14A C62G,0.582
9,G55C A87C,1.11
10,G40U A45G,0.688
11,C4G A51U,0.284
12,U65C A71U,0.812
13,C57G C84U,0.721
14,C7U C19G,0.0528
15,C21U C61U,0.319
16,C19G C61G,0.0378
17,C14G A78G,0.317
18,G52U G73C,0.155
19,C18G A56U,0.138
20,G10C U69G,0.997
21,C48U G80U,0.194
22,U65G C66U,0.702
23,A43G C66A,0.554
24,A70U A78G,0.7

row,Variant,self-cleavage
1,A8G G68U,0.855
2,A8C C15G,0.378
3,C61G A87U,0.943
4,G38A U60C,0.0272
5,G54C U65C,0.92
6,G25A C48A,0.491
7,U27A C36U,0.538
8,G10U C19U,0.144
9,G55C,1.02
10,G34C C61G,0.231
11,G74C G76C,0.185
12,C4G C58U,0.404
13,G53C G81U,0.293
14,C30U C32A,0.155
15,A8G U12C,0.151
16,G10C U46C,0.475
17,G2A G53U,0.145
18,G11C C19A,0.0314
19,A70C G73A,0.407
20,U72A G74C,0.339
21,G54A G82A,0.208
22,G11A,0.42
23,A8C C22G,0.0791
24,G31U G76A,0.369

row,Variant,self-cleavage
1,G76A G80A,0.585
2,A16G U23C,1.14
3,A71U C86A,0.729
4,G1U A70C,0.302
5,C14A C21A,0.0652
6,G55A C61U,0.96
7,U46A G82A,0.156
8,G28C A83G,0.0542
9,U9G C19G,0
10,U12C G29A,0.0415
11,G31C C86A,0.312
12,C14A G68U,0.462
13,C22A G38C,0.0346
14,G40C G52C,0.0573
15,G35A C64A,0.379
16,G35C U79A,0.122
17,G17C G67C,0.289
18,C30U C61U,0.719
19,U12G G81U,0.266
20,C30G G35C,0.198
21,G5C C84G,0.332
22,C30A A45U,0.375
23,C24A A43G,0.256
24,G2C A78U,0.132

row,Variant,self-cleavage
1,U65C C75U,0.185
2,U46A G53U,0.712
3,U27A G35C,0.201
4,G25A U27C,0.538
5,C48U U72G,0.639
6,A43G A45U,0.584
7,U79A C85U,0.855
8,G55A A87U,1
9,G10U C18G,0.111
10,C18A G50C,0.219
11,U37C C44A,0.499
12,G34A G40C,0.0482
13,U37G G67U,0.18
14,G5C A71U,0.18
15,A42U G53U,0.698
16,A71C G73C,0.378
17,C24G A77U,0.111
18,G54A G73C,0.527
19,G17C C36U,0.0339
20,C33G,0.173
21,G35A A70C,0.434
22,G11U G81A,0.0623
23,A8U U12A,0.208
24,G17C C44A,0

row,Variant,self-cleavage
1,A71G C85A,0.674
2,G39A C84A,0.415
3,G34U G80U,0.128
4,G59A G76C,0.854
5,U12A G53C,0.475
6,C7A G35A,0.0841
7,G50A G54A,0.726
8,G50U C62G,0.344
9,C14U A16U,1.09
10,U37G A45G,0.0692
11,G11A A71U,0.229
12,C7G C64A,0.0831
13,C22A G74U,0.0213
14,A8U U37A,0.201
15,G1A U27A,0
16,C30U U65G,0.506
17,C64A U72G,0.856
18,G1U A16C,0.277
19,G52A A83G,0.85
20,C49A G76U,1.01
21,C26A C86A,1.13
22,G35U C64G,0.403
23,C13A C48A,0
24,G50A C85U,0.938

row,Variant,self-cleavage
1,A56U C86G,1.19
2,G59C A78G,0.778
3,G17C G53C,0.178
4,G67C G73A,0.327
5,C21G A77C,0.0536
6,A42U A70G,0.571
7,G1U U23C,0.665
8,C33U A45C,0.494
9,U9A U65A,1.05
10,G31U C41U,0.151
11,G54U U65G,0.782
12,C26A C63U,0.869
13,U27C G54C,0.538
14,G17A U27A,0.609
15,G34C C75G,0.131
16,G28C C32A,0.154
17,U27C A43C,0.172
18,G39C U72G,0.128
19,U20A C41U,0
20,C13U C22U,0.193
21,U12A G50C,0.332
22,C4U G10C,0.63
23,U79G G80A,0.249
24,A8U C18A,0.0554

row,Variant,self-cleavage
1,A43G G82C,0.131
2,C4U G29U,0.0302
3,G50A G53C,0.759
4,A56U U65A,1
5,U72C U79A,0.369
6,C49U U72C,0.554
7,C18G C44U,0.0426
8,G10C G81U,0.196
9,U60A G76A,1
10,C22A C32U,0.19
11,U12A G25C,0.17
12,A56C A78C,0.111
13,C24A C63G,0.723
14,C58U C84U,0.731
15,G2C C18G,0
16,G17A U20A,0.253
17,U46G C86A,0.684
18,G34C G54A,0.166
19,C30U G50A,0.728
20,G1C G67C,0.111
21,C3U U20A,0.0308
22,U12G A78C,0.0594
23,C36U G80U,0.224
